According to publication PMC2831313 (Nucleic Acids Research, 2009):

Target: N-biotinylated HapB (Aspergillus nidulans, biotin (N-biotinylated))
Test: SPR

B1: HapC/HapE heterodimer (wild-type HapC) (complex)
chain 1: MSSTSPSKEPEVEQEPQSGEEHEQMDKEQDNQTQGQGEFEVKEQDRWLPIANVARIMKLALPENAKIAKEAKECMQECVSEFISFITSEASEKCQQEKRKTVNGEDILFAMTSLGFENYAEALKIYLSKYRETQSARGEHQNRPPSSGYAGGGPVGGAASGPSVVRAGGAAAGGAFPEASDNAGSIMNQGLDPSEQDASAYGYPPMVGQGHNGAGGESY
chain 2: MEQAQQTSGQQQGRQQPVYDTRQGGHYGASAALAAQGFAPVAELYTGTWANVNQGLQGTARDILTTYWQHVINHLESDNHDYKIHQLPLARIKKVMKADPEVKMISAEAPILFAKGCDVFITELTMRAWIHAEDNKRRTLQRSDIAAALSKSDMFDFLIDIVPREEATSHAKRSSQSAGAPAGPGGPTAAGQLPQTQHGVQHHPHHMAPPDYGALGQHPLQDQEYRQQTMYGGAVQSDPTAAYAQPQTQMFEGMYTAYPHLPPQQ
Kd: 35.3 nM
